Data on one molecule can be found in patent publication US20080009025A1, “PROTEIN KINASE REGULATION” (priority 1999, published 2008).

The target of this assay is GST-PDK1[K115A], O15530. The experiment in a line: cell-based or functional assay.
Sequence of GST-PDK1[K115A], O15530 (O15530 whole entry K115A): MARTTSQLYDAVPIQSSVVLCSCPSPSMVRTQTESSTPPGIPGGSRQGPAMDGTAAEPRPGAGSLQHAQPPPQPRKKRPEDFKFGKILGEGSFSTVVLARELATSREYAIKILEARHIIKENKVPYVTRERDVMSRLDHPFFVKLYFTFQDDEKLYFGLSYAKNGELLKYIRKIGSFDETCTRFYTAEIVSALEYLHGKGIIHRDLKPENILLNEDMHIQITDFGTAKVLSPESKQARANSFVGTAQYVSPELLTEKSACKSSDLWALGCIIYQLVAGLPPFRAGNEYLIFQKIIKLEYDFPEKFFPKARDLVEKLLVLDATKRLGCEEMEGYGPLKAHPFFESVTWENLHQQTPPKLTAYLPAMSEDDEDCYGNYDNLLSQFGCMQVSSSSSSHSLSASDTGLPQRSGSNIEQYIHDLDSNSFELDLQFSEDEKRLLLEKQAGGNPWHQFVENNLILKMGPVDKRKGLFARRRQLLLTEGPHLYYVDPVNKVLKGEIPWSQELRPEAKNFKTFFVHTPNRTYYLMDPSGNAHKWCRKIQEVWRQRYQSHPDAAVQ

With REPRILSEEEQEMFRDFDYIADWC [PIFtide (24 residue synthetic peptide encompassing the PDK1 binding site on PIF)], the inhibition by 2 µM PIFtide of the activation of S6K1-T2[T412E] and SGK1[T422D] by this PDK1 mutant is 50%; the inhibition by 35 µM PIFtide of the activation of S6K1-T2[T412E] and SGK1[T422D] by this PDK1 mutant is above 95%.
